The values below come from PMC10132805.

In assay [1] the target is FITC - UL56 46-55 (HHV2) (Human herpesvirus 2 (strain HG52) (HHV-2)).
In assay [2] the target is FITC - ARRB2 370-379 (Human) (Homo Sapiens).
Assay [3] addresses centrosomal protein of 55 kDa EABR domain (CEP55 EABR) (human) (UniProt Q53EZ4).
Assay [4] deals with C terminal domain of polyadenylate-binding protein 1 (human) (UniProt P11940).
Assay [5] concerns the target N-terminal domain of clathrin (CLTC NTD) (human) (UniProt Q00610).
In assay [6] the target is V domain of programmed cell death 6-interacting protein (ALIX V) (human) (UniProt Q8WUM4).
The target in assay [7] is programmed cell death 6-interacting protein (ALIX) V domain (human).
For assay [8], the target named is FITC - gag 493-502 (HIV1) (Human immunodeficiency virus type 1 group N (isolate YBF30) (HIV-1)).
In assay [9] the target is E3 ubiquitin-protein ligase NEDD4 WW4 domain (human).
Assay [10] deals with E3 ubiquitin-protein ligase NEDD4 WW2 domain (human).
Assay [11] concerns the target FITC - PDCD6IP 797-809 (Human) (Homo Sapiens).

Sequence of N-terminal domain of clathrin (CLTC NTD) (human) (Q00610 whole entry, the tested form may be a part): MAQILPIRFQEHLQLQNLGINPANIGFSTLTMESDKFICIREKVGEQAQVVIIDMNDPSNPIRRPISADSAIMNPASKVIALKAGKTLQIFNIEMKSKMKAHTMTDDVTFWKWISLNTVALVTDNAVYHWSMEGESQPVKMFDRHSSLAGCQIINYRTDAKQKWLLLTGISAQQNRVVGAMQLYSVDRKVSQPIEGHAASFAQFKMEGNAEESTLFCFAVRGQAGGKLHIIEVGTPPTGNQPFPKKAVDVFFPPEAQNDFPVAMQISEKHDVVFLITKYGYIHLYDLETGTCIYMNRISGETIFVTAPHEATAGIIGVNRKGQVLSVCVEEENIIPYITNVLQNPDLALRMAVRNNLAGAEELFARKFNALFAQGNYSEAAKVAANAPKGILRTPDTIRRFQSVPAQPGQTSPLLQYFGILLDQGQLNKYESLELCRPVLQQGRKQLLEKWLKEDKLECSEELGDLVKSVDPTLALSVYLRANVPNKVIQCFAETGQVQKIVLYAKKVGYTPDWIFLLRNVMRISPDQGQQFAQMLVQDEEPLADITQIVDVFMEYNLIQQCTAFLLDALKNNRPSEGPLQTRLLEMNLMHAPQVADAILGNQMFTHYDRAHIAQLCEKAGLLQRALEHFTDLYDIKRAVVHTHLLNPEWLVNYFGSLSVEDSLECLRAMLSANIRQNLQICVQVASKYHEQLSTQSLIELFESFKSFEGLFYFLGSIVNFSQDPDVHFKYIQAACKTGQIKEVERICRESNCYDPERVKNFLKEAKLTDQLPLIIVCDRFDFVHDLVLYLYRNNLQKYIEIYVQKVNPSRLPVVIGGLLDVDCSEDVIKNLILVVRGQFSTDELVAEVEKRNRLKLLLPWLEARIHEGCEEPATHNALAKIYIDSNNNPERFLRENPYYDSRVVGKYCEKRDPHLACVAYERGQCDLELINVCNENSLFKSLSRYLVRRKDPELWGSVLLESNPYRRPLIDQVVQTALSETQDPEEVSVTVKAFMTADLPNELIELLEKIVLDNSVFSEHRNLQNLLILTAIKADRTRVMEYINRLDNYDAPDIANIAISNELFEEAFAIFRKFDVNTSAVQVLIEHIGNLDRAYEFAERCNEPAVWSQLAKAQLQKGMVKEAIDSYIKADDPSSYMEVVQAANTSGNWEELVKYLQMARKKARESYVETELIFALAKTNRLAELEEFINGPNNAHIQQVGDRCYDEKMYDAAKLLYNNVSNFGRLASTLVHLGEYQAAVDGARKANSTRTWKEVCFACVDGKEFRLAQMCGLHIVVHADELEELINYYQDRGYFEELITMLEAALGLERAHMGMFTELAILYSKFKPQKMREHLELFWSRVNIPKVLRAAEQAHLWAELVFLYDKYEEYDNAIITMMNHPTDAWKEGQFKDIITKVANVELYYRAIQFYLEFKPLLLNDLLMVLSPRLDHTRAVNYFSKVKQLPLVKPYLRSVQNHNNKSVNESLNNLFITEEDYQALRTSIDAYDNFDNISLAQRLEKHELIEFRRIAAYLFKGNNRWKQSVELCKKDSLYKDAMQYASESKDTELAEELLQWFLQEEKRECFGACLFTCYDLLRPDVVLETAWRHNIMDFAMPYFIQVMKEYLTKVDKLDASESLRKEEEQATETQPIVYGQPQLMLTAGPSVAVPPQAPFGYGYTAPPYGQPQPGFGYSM
Sequence of V domain of programmed cell death 6-interacting protein (ALIX V) (human) (Q8WUM4 whole entry): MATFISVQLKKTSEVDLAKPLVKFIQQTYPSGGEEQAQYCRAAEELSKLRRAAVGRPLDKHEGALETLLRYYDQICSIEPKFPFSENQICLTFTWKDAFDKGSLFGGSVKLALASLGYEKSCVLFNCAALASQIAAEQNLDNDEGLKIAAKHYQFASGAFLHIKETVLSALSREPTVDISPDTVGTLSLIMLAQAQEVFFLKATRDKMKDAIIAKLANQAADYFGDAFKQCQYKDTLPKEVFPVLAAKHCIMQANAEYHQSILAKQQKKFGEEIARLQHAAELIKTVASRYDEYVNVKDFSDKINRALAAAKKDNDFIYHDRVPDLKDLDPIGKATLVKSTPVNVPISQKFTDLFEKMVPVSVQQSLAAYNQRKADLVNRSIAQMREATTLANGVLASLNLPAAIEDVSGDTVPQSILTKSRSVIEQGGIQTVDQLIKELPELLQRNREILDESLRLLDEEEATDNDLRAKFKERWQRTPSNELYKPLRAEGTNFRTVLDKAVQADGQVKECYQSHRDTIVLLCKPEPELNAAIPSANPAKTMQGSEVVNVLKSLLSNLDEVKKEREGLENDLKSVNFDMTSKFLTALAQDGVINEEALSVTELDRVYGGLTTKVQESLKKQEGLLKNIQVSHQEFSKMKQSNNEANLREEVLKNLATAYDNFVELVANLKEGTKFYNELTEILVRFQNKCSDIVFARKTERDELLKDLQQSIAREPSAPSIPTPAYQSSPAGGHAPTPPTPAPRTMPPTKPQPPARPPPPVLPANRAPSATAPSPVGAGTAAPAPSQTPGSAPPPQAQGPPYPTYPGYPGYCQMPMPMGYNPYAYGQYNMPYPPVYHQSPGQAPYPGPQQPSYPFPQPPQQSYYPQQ
Sequence of centrosomal protein of 55 kDa EABR domain (CEP55 EABR) (human) (Q53EZ4 whole entry, the tested form may be a part): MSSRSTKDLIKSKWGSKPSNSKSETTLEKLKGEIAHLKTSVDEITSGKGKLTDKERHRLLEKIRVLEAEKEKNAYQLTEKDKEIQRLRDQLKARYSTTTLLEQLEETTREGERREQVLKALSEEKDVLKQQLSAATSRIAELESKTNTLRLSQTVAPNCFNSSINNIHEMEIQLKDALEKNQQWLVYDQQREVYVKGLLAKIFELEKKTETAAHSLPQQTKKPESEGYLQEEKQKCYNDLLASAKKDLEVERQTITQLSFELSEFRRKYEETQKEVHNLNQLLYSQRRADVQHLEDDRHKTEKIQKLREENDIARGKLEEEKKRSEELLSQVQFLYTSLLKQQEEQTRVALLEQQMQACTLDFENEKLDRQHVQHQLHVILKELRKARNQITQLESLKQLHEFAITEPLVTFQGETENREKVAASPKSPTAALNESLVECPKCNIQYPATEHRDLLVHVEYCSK
Sequence of C terminal domain of polyadenylate-binding protein 1 (human) (P11940 544-623): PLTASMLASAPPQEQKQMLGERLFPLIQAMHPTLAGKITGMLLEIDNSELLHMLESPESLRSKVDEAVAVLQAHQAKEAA
Sequence of E3 ubiquitin-protein ligase NEDD4 WW2 domain (human) (P46934 whole entry, the tested form may be a part): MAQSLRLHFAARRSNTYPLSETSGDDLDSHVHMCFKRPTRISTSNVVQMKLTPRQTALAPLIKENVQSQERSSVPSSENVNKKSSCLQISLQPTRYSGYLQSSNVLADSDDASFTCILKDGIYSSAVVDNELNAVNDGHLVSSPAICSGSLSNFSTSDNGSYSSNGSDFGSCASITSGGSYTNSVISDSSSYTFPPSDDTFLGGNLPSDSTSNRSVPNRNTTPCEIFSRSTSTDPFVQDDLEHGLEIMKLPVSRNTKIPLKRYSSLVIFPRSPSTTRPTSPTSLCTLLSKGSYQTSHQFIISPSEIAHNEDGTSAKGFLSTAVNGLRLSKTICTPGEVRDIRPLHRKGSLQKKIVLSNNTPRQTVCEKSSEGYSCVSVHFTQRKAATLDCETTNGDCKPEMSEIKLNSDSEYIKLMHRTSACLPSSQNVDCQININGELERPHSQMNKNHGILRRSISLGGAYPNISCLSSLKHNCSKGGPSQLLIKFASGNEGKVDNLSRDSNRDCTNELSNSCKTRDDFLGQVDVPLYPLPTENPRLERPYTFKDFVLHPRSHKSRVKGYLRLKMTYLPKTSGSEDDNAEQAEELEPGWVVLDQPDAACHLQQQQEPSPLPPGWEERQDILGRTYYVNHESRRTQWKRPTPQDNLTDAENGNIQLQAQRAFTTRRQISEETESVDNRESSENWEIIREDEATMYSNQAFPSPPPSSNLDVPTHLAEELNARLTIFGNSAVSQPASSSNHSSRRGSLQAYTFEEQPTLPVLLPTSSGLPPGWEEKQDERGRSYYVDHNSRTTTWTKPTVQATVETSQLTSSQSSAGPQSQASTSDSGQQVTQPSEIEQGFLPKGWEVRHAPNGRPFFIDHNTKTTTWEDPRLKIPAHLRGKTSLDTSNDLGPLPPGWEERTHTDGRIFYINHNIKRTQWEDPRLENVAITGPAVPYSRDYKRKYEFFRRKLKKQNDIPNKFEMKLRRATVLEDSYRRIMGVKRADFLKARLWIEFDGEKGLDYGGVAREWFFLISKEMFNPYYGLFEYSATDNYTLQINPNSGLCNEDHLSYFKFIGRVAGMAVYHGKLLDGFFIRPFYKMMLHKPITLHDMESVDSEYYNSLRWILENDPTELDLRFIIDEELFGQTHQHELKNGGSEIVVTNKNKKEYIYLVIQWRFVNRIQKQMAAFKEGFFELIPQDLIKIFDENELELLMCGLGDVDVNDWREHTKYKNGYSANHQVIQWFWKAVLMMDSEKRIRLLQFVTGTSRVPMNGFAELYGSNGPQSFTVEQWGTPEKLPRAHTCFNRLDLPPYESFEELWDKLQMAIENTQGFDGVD
Sequence of E3 ubiquitin-protein ligase NEDD4 WW4 domain (human) (P46934 whole entry, the tested form may be a part): as above

In the case of “E3 ubiquitin-protein ligase NEDD4 WW2 domain (domain or fragment)”, in [1], the Kd was 16 µM. This lies in the double-digit micromolar range. As for “E3 ubiquitin-protein ligase NEDD4 WW4 domain (domain or fragment)”, the Kd in [1] came to 82 µM. “N-terminal domain of clathrin (CLTC NTD) (from UniProt Q00610 1-1675) (domain or fragment)” gave a Kd in assay [2] of 26 µM. On to NP 602-617 (REBOV) (peptide), for which, in assay [3], the Kd turned out to be 2.18 µM.

Substance N_(2-17) (BeV) peptide showed a fold weaker affinity than PAIP2(108-123) in assay [4] of 10 fold. As for Nsp3 1765-1780 (EEEV) (peptide), the Kd in assay [5] turned out to be 28 µM. In other words, the double-digit micromolar range. In [6], Nsp4 118-142 (BAV) (peptide) came in with a Kd of 160 µM.

In assay [6], Nsp4 119-134 (BAV) (peptide) gave a Kd of 101 µM. For the substance Nsp4_(118-142) (BAV) peptide, the fold weaker affinity than the syntenin-2 peptide in [7] was more than 300 fold. In [3], P 177-192 (RABV) (peptide) registered a Kd of 22.3 µM. In assay [5], RdRp 1840-1855 (SVV) (peptide) gave a Kd of 800 µM.

With “V domain of programmed cell death 6-interacting protein (ALIX V) (from UniProt Q8WUM4 1-868) (domain or fragment)”, in assay [8], the Kd is 2.6 µM.

Regarding VP40 1-20 (SEBOV) (peptide), the dissociation constant (Kd) in [9] worked out at 68 µM; in assay [10], 22 µM. The substance “centrosomal protein of 55 kDa EABR domain (CEP55 EABR) (from UniProt Q53EZ4 1-464) (domain or fragment)” showed a Kd in assay [11] of 0.31 µM. Turning to mu-NS 705-720 (MRV1) (peptide), in assay [5], the dissociation constant Kd was 34 µM.

The term Kd denotes the concentration at which binding is half-saturated. High values mean a looser complex, low ones a tighter complex.
